According to patent US20200262877A1, “ION CHANNEL-BINDING PEPTIDES AND METHODS OF USE THEREOF” (priority 2017, published 2020):

Legend:
[1] = biological target: T1, NR2A (Homo sapiens, UniProt Q12879); assay: Ion channel panel (IonWorks Barracuda): NR2A; format: cell-based; conditions: 100% = no change, <100% = inhibition
T1 construct: host or cells: HEK293 or CHO
Outline: (§1)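 Transfected HEK293 or CHO cells were exposed for at least 5 min to peptides at 200 nM and 20 μM final, tested in duplicate, in HEPES-buffered physiological saline. Activation was taken as peptide-plus-agonist current over control current ×100, and inhibition as 1 minus that ratio ×100. Each channel's control was its own reference compound.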

[2] = biological target: hERG (Homo sapiens, UniProt Q12809); assay: in vitro; conditions: 100% = no change, <100% = inhibition
Outline: as §1

[3] = biological target: Nav1.5 (Homo sapiens, UniProt Q14524); assay: in vitro; conditions: 100% = no change; for Activity of Nav1.5 with peptide, expressed as a percentage of the reference compound: peptide at 0.2 μM; for Activity of Nav1.5 with peptide (percentage of the reference compound): peptide at 20 μM
Chain of Nav1.5 (Q14524 whole entry): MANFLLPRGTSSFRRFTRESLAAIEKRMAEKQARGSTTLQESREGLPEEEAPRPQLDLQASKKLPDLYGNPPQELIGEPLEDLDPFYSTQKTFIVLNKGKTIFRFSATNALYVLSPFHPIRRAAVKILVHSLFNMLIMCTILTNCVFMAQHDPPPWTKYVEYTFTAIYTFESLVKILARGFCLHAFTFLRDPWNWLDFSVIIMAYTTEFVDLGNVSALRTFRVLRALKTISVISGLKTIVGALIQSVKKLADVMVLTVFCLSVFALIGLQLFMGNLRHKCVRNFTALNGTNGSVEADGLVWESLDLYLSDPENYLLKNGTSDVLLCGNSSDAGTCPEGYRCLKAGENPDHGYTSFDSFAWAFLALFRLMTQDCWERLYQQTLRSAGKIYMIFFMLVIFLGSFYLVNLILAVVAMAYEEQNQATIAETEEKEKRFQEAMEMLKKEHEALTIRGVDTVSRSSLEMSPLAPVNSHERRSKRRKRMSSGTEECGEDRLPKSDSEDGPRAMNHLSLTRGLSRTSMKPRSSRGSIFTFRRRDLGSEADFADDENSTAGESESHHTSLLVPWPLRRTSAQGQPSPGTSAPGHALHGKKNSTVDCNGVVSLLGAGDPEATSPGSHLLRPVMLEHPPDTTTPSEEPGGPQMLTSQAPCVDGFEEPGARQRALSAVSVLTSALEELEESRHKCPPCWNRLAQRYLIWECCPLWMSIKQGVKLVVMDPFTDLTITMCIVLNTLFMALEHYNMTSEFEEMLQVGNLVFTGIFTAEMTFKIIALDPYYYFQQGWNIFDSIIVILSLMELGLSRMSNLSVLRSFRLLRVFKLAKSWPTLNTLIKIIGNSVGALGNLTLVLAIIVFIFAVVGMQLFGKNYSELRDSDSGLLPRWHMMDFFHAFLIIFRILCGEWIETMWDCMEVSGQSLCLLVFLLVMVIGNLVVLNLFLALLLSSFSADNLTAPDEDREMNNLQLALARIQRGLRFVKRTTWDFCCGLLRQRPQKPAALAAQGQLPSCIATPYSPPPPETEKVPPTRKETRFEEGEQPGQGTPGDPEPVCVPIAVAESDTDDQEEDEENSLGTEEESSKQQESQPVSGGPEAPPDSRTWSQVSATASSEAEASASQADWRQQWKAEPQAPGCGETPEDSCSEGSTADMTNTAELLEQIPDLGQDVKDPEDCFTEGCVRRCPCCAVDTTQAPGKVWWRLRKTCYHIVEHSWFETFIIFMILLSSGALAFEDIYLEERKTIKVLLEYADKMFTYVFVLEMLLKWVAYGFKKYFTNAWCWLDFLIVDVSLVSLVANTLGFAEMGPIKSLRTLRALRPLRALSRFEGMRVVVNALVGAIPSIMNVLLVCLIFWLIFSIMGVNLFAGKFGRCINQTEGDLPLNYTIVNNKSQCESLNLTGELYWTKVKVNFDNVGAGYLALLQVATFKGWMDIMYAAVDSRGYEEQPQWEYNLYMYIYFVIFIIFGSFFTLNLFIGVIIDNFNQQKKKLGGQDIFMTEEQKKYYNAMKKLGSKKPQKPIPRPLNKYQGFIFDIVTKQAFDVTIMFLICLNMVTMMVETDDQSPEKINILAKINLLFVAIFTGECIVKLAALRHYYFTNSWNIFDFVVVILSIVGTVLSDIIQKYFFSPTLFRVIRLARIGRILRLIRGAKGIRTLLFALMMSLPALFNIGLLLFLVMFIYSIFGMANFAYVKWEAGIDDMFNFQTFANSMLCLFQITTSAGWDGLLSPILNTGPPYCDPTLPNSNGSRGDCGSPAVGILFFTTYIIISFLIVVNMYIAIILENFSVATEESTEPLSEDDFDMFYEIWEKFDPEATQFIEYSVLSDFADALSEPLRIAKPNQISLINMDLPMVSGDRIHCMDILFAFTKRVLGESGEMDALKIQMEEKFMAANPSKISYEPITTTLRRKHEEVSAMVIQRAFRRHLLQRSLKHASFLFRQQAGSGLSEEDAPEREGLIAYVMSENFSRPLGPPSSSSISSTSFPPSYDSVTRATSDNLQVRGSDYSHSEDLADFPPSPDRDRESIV
Outline: as §1

[4] = biological target: T2, Nav1.7 (Homo sapiens, UniProt Q15858); assay: cell-based; format: cell-based; conditions: 100% = no change; for Activity of Nav1.7 with peptide, expressed as a percentage of the reference compound: peptide at 0.2 μM; for Activity of Nav1.7 with peptide (percentage of the reference compound): peptide at 20 μM
T2 construct: host or cells: HEK293 or CHO
T2 sequence (Q15858 whole entry): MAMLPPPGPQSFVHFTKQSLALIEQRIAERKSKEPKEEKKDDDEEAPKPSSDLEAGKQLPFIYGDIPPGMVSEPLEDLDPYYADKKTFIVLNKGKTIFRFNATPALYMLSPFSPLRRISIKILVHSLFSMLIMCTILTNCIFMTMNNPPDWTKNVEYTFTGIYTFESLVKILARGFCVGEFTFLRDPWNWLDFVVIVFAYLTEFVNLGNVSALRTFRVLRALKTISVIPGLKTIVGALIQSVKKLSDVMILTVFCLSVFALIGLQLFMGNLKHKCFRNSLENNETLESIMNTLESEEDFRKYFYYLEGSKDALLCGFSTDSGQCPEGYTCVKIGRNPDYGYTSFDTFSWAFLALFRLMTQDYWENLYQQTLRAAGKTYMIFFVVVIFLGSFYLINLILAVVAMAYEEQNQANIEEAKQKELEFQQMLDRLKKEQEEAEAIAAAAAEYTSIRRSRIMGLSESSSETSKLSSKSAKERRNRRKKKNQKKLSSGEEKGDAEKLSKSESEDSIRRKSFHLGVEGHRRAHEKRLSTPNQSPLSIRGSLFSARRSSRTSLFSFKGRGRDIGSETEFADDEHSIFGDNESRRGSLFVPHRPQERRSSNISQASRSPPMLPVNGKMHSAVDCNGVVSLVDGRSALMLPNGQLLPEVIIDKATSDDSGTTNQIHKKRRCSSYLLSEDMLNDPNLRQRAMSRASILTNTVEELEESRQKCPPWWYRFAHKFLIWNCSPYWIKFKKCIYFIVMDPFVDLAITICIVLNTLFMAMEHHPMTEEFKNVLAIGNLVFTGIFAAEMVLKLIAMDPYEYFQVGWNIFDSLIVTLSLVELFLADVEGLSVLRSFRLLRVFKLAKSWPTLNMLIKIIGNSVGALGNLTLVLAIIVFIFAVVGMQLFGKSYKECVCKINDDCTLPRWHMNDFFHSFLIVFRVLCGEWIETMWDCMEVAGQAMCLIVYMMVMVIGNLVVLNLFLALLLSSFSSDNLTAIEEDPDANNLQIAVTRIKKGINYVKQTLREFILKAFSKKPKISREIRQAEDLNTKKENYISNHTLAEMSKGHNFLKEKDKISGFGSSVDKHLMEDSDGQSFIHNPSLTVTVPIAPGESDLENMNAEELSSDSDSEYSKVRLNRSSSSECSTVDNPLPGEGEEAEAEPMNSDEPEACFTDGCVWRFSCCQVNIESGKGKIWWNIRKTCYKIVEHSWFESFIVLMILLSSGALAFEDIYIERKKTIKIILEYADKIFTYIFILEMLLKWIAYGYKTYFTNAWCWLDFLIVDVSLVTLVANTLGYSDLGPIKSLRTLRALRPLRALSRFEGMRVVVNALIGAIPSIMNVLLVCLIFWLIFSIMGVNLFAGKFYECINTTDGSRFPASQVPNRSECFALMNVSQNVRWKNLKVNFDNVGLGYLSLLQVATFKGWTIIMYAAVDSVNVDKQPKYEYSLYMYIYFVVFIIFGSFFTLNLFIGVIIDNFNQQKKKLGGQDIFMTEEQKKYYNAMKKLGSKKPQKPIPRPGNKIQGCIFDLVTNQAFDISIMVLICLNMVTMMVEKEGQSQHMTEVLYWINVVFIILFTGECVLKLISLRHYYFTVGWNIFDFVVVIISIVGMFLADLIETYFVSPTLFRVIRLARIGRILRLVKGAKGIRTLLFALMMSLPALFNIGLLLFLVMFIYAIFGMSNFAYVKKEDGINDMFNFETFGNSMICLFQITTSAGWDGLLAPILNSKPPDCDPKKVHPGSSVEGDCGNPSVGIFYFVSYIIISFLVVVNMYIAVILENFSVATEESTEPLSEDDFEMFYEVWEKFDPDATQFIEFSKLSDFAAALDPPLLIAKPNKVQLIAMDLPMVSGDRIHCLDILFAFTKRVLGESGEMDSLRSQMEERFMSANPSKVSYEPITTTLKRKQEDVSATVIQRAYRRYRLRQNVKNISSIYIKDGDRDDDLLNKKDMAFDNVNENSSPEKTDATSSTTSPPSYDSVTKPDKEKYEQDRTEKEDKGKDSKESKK

[5] = test system: GABA; assay: Ion channel panel (IonWorks Barracuda): GABA; format: cell-based; conditions: 100% = no change, <100% = inhibition
Outline: as §1

[6] = biological target: T3, NR2B (Homo sapiens, UniProt Q13224); assay: Ion channel panel (IonWorks Barracuda): NR2B; format: cell-based; conditions: 100% = no change, <100% = inhibition
T3 construct: host or cells: HEK293 or CHO
Outline: as §1

[7] = biological target: T4, α3β4 (Homo sapiens, UniProt P30926+P32297); assay: Ion channel panel (IonWorks Barracuda): α3β4; format: cell-based; conditions: 100% = no change, <100% = inhibition
T4 construct: host or cells: HEK293 or CHO
Outline: as §1

[8] = biological target: T5, TRPA1 (Homo sapiens, UniProt O75762); assay: Ion channel panel (IonWorks Barracuda): TRPA1; format: cell-based; conditions: 100% = no change, <100% = inhibition
T5 construct: host or cells: HEK293 or CHO
Outline: as §1

[9] = biological target: T6, Kir2.1 (Homo sapiens, UniProt P63252); assay: Ion channel panel (IonWorks Barracuda): Kir2.1; format: cell-based; conditions: 100% = no change, <100% = inhibition
T6 construct: host or cells: HEK293 or CHO
T6 sequence (P63252 whole entry): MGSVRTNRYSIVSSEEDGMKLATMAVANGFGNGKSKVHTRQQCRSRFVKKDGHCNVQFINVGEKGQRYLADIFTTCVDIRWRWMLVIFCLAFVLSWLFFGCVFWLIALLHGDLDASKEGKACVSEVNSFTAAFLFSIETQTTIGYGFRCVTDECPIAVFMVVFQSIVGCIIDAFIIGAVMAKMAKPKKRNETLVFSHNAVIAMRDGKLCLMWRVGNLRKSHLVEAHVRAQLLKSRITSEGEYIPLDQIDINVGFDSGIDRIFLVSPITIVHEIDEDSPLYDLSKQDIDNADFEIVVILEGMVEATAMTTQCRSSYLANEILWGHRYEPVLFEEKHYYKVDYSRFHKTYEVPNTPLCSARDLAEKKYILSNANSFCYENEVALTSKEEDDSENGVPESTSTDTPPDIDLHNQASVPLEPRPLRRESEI
Outline: as §1

[10] = biological target: T7, Kv1.1 (Homo sapiens, UniProt Q09470); assay: cell-based; format: cell-based; conditions: 100% = no change, <100% = inhibition
T7 construct: host or cells: HEK293 or CHO
T7 sequence (Q09470 whole entry): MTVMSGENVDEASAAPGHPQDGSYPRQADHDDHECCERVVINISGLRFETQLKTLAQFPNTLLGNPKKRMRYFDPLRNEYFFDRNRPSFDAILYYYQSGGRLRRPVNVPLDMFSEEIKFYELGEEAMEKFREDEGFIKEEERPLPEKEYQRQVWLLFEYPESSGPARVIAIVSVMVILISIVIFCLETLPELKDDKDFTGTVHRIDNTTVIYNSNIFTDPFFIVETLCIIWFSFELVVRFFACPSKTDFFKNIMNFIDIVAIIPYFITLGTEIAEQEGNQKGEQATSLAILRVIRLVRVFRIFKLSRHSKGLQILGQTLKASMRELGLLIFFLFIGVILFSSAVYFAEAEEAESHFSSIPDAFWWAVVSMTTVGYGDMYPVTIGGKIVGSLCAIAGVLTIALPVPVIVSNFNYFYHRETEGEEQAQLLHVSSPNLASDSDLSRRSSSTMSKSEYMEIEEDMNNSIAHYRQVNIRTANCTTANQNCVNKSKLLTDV
Outline: as §1

[11] = biological target: T8, Kv1.3 (Homo sapiens, UniProt P22001); assay: cell-based; format: cell-based; conditions: 100% = no change, <100% = inhibition
T8 construct: host or cells: HEK293 or CHO
Outline: as §1

[12] = biological target: T9, Kv1.2 (Homo sapiens, UniProt P16389); assay: cell-based; format: cell-based; conditions: 100% = no change, <100% = inhibition
T9 construct: host or cells: HEK293 or CHO
Outline: as §1

[13] = biological target: T10, TRPV1 (Homo sapiens, UniProt Q8NER1); assay: Ion channel panel (IonWorks Barracuda): TRPV1; format: cell-based; conditions: 100% = no change, <100% = inhibition
T10 construct: host or cells: HEK293 or CHO
Outline: as §1

[14] = biological target: T11, Cav2.2 (Homo sapiens, UniProt Q00975); assay: cell-based; conditions: 100% = no change, <100% = inhibition
T11 construct: host or cells: HEK293 or CHO
Outline: as §1

[15] = biological target: T12, Kv2.1 (Homo sapiens, UniProt Q14721); assay: cell-based; conditions: 100% = no change, <100% = inhibition
T12 construct: host or cells: HEK293 or CHO
Outline: as §1

[16] = biological target: T13, Cav2.1 (Homo sapiens, UniProt O00555); assay: cell-based; conditions: 100% = no change, <100% = inhibition
T13 construct: host or cells: HEK293 or CHO
Outline: as §1

[17] = biological target: T14, 5HT3a (Homo sapiens, UniProt P46098); assay: Ion channel panel (IonWorks Barracuda): 5HT3a; format: cell-based
T14 construct: host or cells: HEK293 or CHO
T14 sequence (P46098 whole entry, looked up): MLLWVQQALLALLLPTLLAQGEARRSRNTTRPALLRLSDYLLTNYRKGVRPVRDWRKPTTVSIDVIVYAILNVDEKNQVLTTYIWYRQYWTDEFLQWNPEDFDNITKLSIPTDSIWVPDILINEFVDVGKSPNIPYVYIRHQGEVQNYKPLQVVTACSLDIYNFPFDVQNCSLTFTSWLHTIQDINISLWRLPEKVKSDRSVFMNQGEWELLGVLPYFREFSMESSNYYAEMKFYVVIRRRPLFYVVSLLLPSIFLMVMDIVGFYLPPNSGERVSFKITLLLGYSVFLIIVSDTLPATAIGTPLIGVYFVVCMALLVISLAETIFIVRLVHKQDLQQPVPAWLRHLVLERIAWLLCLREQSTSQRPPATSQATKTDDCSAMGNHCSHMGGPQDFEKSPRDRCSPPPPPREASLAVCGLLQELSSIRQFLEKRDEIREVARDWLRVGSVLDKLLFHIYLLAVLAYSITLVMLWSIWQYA
Outline: as §1

[18] = biological target: T15, α4β2 (Homo sapiens, UniProt P17787+P43681); assay: Ion channel panel (IonWorks Barracuda): α4β2; format: cell-based; conditions: 100% = no change, <100% = inhibition
T15 construct: host or cells: HEK293 or CHO
Outline: as §1

[19] = first of two Nav1.5 columns (probably TP1)
[20] = second of two Nav1.5 columns (probably TP2)
[21] = first of two Nav1.7 columns (probably TP1)
[22] = second of two Nav1.7 columns (probably TP2)

“16 (GSQFCGTNGKPCVNGQCCGALRCVVTYHYADGVCLKMNP) [compound 16]” was tested, and the “Activity of NR2A with peptide, expressed as a percentage of the reference compound” value ([1]; peptide at 0.2 μM) was 101%, the “Activity of NR2A with peptide (percentage of the reference compound)” value ([1]; peptide at 20 μM) was 95% and the “Activity of hERG with peptide, expressed as a percentage of the reference compound” value ([2]; peptide at 0.2 μM) was 74%. The “Activity of hERG with peptide (percentage of the reference compound)” value ([2]; peptide at 20 μM) was 71%, the “Activity of Nav1.5 with peptide, expressed as a percentage of the reference compound” value [3, 19] was 107% and the “Activity of Nav1.5 with peptide, expressed as a percentage of the reference compound” value [3, 20] was 104%. The “Activity of Nav1.5 with peptide (percentage of the reference compound)” value [3, 19] was 93%, the “Activity of Nav1.5 with peptide (percentage of the reference compound)” value [3, 20] was 93% and the “Activity of Nav1.7 with peptide, expressed as a percentage of the reference compound” value [4, 21] was 86%. The “Activity of Nav1.7 with peptide, expressed as a percentage of the reference compound” value [4, 22] was 91%, the “Activity of Nav1.7 with peptide (percentage of the reference compound)” value [4, 21] was 66% and the “Activity of Nav1.7 with peptide (percentage of the reference compound)” value [4, 22] was 43%. The “Activity of GABA with peptide, expressed as a percentage of the reference compound” value ([5]; peptide at 0.2 μM) was 102%, the “Activity of GABA with peptide (percentage of the reference compound)” value ([5]; peptide at 20 μM) was 109% and the “Activity of NR2B with peptide, expressed as a percentage of the reference compound” value ([6]; peptide at 0.2 μM) was 88%. For the same substance, the “Activity of NR2B with peptide (percentage of the reference compound)” value ([6]; peptide at 20 μM) was 91%, the “Activity of a3b4 with peptide, expressed as a percentage of the reference compound” value ([7]; peptide at 0.2 μM) was 100% and the “Activity of a3b4 with peptide (percentage of the reference compound)” value ([7]; peptide at 20 μM) was 95%. For the same substance, the “Activity of TRPA1 with peptide, expressed as a percentage of the reference compound” value ([8]; peptide at 0.2 μM) was 99%, the “Activity of TRPA1 with peptide (percentage of the reference compound)” value ([8]; peptide at 20 μM) was 116% and the “Activity of Kir2.1 with peptide, expressed as a percentage of the reference compound” value ([9]; peptide at 0.2 μM) was 98%. The “Activity of Kir2.1 with peptide (percentage of the reference compound)” value ([9]; peptide at 20 μM) was 92%, the “Activity of Kv1.1 with peptide, expressed as a percentage of the reference compound” value ([10]; peptide at 0.2 μM) was 84% and the “Activity of Kv1.1 with peptide (percentage of the reference compound)” value ([10]; peptide at 20 μM) was 67%. For the same substance, the “Activity of Kv1.3 with peptide, expressed as a percentage of the reference compound” value ([11]; peptide at 0.2 μM) was 92%, the “Activity of Kv1.3 with peptide (percentage of the reference compound)” value ([11]; peptide at 20 μM) was 92% and the “Activity of Kv1.2 with peptide, expressed as a percentage of the reference compound” value ([12]; peptide at 0.2 μM) was 78%. The “Activity of Kv1.2 with peptide (percentage of the reference compound)” value ([12]; peptide at 20 μM) was 61%, the “Activity of TRPV1 with peptide, expressed as a percentage of the reference compound” value ([13]; peptide at 0.2 μM) was 107% and the “Activity of TRPV1 with peptide (percentage of the reference compound)” value ([13]; peptide at 20 μM) was 88%. For the same substance, the “Activity of Cav2.2 with peptide, expressed as a percentage of the reference compound” value ([14]; peptide at 0.2 μM) was 124%, the “Activity of Cav2.2 with peptide (percentage of the reference compound)” value ([14]; peptide at 20 μM) was 104% and the “Activity of Kv2.1 with peptide, expressed as a percentage of the reference compound” value ([15]; peptide at 0.2 μM) was 114%. The “Activity of Kv2.1 with peptide (percentage of the reference compound)” value ([15]; peptide at 20 μM) was 98%, the “Activity of Cav2.1 with peptide, expressed as a percentage of the reference compound” value ([16]; peptide at 0.2 μM) was 113% and the “Activity of Cav2.1 with peptide (percentage of the reference compound)” value ([16]; peptide at 20 μM) was 92%. For the same substance, the “Activity of 5HT3a with peptide (percentage of the reference compound)” value [17] was 103%, the “Activity of 5HT3a with peptide, expressed as a percentage of the reference compound” value [17] was 114% and the “Activity of a4b2 with peptide, expressed as a percentage of the reference compound” value ([18]; peptide at 0.2 μM) was 83%. The “Activity of a4b2 with peptide (percentage of the reference compound)” value ([18]; peptide at 20 μM) was 72%.
